In series [1] the target is T1, bovine LPL (lipoprotein lipase) (bovine, UniProt P11151 29-478).
T1 sequence (looked up): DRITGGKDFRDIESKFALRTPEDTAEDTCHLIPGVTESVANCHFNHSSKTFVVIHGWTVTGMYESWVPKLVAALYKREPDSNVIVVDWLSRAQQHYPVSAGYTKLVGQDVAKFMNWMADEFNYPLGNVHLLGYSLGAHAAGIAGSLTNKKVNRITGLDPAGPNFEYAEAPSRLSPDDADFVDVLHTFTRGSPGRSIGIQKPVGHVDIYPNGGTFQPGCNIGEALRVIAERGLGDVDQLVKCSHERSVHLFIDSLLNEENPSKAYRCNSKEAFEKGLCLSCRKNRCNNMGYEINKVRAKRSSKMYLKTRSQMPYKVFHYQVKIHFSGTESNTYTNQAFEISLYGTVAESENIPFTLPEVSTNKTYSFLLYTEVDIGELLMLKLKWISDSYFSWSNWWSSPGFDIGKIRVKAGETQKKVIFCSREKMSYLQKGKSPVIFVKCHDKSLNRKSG
In words: cell-based or functional assay.

Series [2] deals with T2, Delta4c trunc4.
T2 chain: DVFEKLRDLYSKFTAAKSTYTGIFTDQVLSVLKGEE

The target of series [3] is T3, Delta13-31-PV.
T3 chain: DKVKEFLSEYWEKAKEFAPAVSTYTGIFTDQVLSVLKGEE

Series [4] deals with T4, C2thirdhelix Stearylpos2.
T4 chain: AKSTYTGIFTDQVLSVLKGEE

Series [5] concerns the target T5, Delta4b-1.
T5 chain: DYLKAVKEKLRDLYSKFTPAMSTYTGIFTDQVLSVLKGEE

Series [6] addresses T6, Delta6.
T6 chain: T5 chain with A5E, K7F, S15E, P19A, M21L

Series [7] concerns the target T7, Delta4c.
T7 chain: T5 chain with K7F, P19A, M21K

Series [8] concerns the target T8, Delta4c trunc10.
T8 chain: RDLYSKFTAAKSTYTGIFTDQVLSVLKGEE

Series [9] deals with T9, Delta4.
T9 chain: T5 chain with K7F, P19A, M21L

For series [10], the target named is T10, C2thirdhelix Stearylpos17.
T10 chain: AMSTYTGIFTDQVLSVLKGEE

The target in series [11] is recombinant ApoC-III.
Series [12] has as its target T11, Delta4b T57F.
T11 chain: T5 chain with K7F, T18F

Series [13] has as its target T12, Delta5.
T12 chain: T5 chain with A5E, K7F, P19A, M21L

The target in series [14] is T13, Delta4b-2.
T13 chain: T5 chain with K7F, L10K

For series [15], the target named is T14, Delta4c trunc7.
T14 chain: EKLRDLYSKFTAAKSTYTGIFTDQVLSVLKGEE

The target in series [16] is T15, Delta4c trunc11.
T15 chain: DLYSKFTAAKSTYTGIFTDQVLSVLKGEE

The target of series [17] is T16, Delta4c trunc3.
T16 chain: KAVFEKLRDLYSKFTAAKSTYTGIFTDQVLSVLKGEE

Series [18] addresses variants of Delta5 with the indicated amino acid substitutions.
The target in series [19] is T17, Delta4b.
T17 chain: T5 chain with K7F

Series [20] deals with T18, C2thirdhelix Stearylpos1.
T18 chain: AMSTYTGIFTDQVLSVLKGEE

The target of series [21] is T19, Delta4b-3.
T19 chain: T5 chain with K7F, F17K

The target of series [22] is T20, Delta4c trunc14.
T20 chain: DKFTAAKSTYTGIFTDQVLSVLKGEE

The target of series [23] is T21, C2thirdhelix.
T21 chain: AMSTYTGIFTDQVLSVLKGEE

Where a chain is given by its changes, count along the chain named.

As for recombinant ApoC-III, in [1], the free fatty acid (NEFA) production, LPL assay with high TG human plasma (1:50) stood at 1.7 µM and the free fatty acid (NEFA) production, LPL assay with human plasma came out at 0.8 µM.

B1: bovine LPL (lipoprotein lipase) (protein)
chain: T1 sequence (looked up)
As for B1, the “TG hydrolysis, LPL assay with apoC-II deficient patient sera” value is “Delta4c and its truncation variants promoted TG hydrolysis” in series [2]; “all variants of Delta5 with the indicated amino acid substitutions and Delta6 exhibited the ability to promote TG hydrolysis in a dose dependent matter” in [6]; “Delta4c and its truncation variants promoted TG hydrolysis” in [7]; “Delta4c and its truncation variants promoted TG hydrolysis” in series [8]; “Delta4c and its truncation variants promoted TG hydrolysis” in series [15]; “Delta4c and its truncation variants promoted TG hydrolysis” in series [16]. The “TG hydrolysis, LPL assay with apoC-II deficient patient sera” value in series [17] was “Delta4c and its truncation variants promoted TG hydrolysis”; in series [18], “all variants of Delta5 with the indicated amino acid substitutions and Delta6 exhibited the ability to promote TG hydrolysis in a dose dependent matter”; in series [22] it was “Delta4c and its truncation variants promoted TG hydrolysis”. Further, the “TG hydrolysis, in vitro LPL assay with apoC-II deficient patient sera” value is “promoted TG hydrolysis in vitro in a dose-dependent manner” in [3]; “lipidation enhanced the ability of C2thirdhelix to promote TG hydrolysis” in series [4]; “lipidation enhanced the ability of C2thirdhelix to promote TG hydrolysis” in series [10]; “incorporation of proline at position 58 and the stearic acid modification at the lysine residue at position 56 enhanced the TG clearance ability of the exemplary apoC-III mimetic peptide Delta4” in series [19]; “lipidation enhanced the ability of C2thirdhelix to promote TG hydrolysis” in [20]; “incorporation of proline at position 58 and the stearic acid modification at the lysine residue at position 56 enhanced the TG clearance ability of the exemplary apoC-III mimetic peptide Delta4” in series [21]. Also, the “TG hydrolysis, in vitro LPL assay with apoC-II deficient patient sera” value in series [23] was “lipidation enhanced the ability of C2thirdhelix to promote TG hydrolysis”. For the same molecule, the “TG hydrolysis, in vitro LPL assay, 100 pM to 10 µM peptide” value in [5], in series [9], in [12], in [14], in series [19] and in series [21] was “promoted TG hydrolysis in a dose-dependent manner” each time. The “TG hydrolysis, LPL assay using Intralipid as substrate” value in series [9] and in series [13] was “worked more efficiently than the native apoC-II protein at concentrations of between about 1 nM to about 10 µM” in each case. Moreover, the “production of free fatty acid (NEFA), LPL assay with Intralipid as substrate” value in series [11] is reported as “apoC-III inhibited the production of free fatty acid (NEFA)”.

In the case of DWLKAFYDKVAEKLKEAFPAMSTYTGIFTDQVLSVLKGEE [apoC-II-a peptide], in [1], the “molar ratio of apoC-II-a to apoC-III that overcomes the in vitro inhibition of LPL” value was 0.1 molar ratio apoC-II-a : apoC-III.

The values are drawn from patent US20200140522A1 (US Dept. of Health and Human Services, published 2020).
